Data set [1] relates to GR repression of an AP-1 induced gene. Kind of data set: GR-mediated repression of PMA-induced AP-1/Luc reporter in U2OS.rGR cells. It is filed as cell-based. As to conditions: for fold repression of PMA-induced AP-1 expression by Dex-bound GR: 25 μM PMA ± 0.1 μM Dex, TIF2 20 ng, STAMP 100 ng plasmid. How it is done: FIG. 5A-F illustrate STAMP modulation of GR-mediated repression. […] U2OS.rGR cells were transiently transfected with ±TIF2 (20 ng)±STAMP (100 ng) plasmids, AP-1/Luc reporter (20 ng), and Renilla control (10 ng) plasmid. The cells were induced with ethanol (EtOH) or 25 μM PMA±0.1 μM Dex. […] The average values±S.E.M. of four experiments are plotted. The numbers in parentheses above the bars labeled “PMA+Dex” represent the average fold repression caused by Dex± the various factors.
FIG. 5B illustrates that functional TIF2 is needed for optimal STAMP activity. U2OS.rGR cells were transiently transfected and processed as described for FIG. 5A but less STAMP (50 ng) was used and two concentrations of TIF2 or TIF2m123 (10 and 20 ng) were employed. The average values±S.E.M. of 4-5 experiments are plotted. An asterisk indicates a significant difference (P≦0.031) between samples containing equal amounts of TIF2 and TIF2m123.
Rogatsky et al. have reported that TIF2 augments GR repression of an AP-1 induced gene. […] The TIF2 domain identified as having TIF2 activity in GR repression was the same as used to isolate STAMP. In order to determine if STAMP was active in GR-mediated gene repression as well as induction, the ability of STAMP to increase the repressive activity of GR in the AP-1 responsive whole cell bioassay system was assessed using U2OS.rGR cells.

The target of data set [2] is T1, glucocorticoid receptor (GR) (Rattus norvegicus, UniProt P06536).
T1 sequence (P06536 1-795): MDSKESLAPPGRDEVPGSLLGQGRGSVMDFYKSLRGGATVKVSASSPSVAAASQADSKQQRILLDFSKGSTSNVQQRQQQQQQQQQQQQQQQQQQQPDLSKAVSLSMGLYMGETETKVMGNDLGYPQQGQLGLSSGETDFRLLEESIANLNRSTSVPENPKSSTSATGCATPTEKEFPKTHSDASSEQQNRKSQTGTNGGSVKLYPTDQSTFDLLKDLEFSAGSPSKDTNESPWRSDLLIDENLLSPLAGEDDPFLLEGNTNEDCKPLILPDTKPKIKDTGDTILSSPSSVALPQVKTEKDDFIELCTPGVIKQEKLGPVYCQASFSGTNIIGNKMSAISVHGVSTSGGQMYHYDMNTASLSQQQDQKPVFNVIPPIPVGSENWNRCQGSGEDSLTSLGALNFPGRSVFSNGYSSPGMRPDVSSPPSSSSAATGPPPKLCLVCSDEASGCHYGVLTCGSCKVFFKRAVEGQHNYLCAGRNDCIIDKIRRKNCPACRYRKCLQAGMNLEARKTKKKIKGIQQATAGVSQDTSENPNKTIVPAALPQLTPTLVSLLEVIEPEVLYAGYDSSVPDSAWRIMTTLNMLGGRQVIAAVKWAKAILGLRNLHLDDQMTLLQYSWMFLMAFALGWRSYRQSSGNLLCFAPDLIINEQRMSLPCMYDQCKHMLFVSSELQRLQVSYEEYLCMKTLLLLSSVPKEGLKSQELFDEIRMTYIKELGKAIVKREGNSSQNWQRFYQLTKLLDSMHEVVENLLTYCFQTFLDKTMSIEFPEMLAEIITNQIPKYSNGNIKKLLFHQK
The data set is described as follows: GR-mediated induction of GREtkLUC reporter, transient transfection of CV-1 cells.
Method: Triplicate samples of CV-1 cells were transiently transfected with GR (6 ng)±TIF2 (20 ng)±STAMP (160 ng) plasmids, GREtkLUC reporter, and Renilla control plasmid. […] FIG. 4B illustrates the fold changes in GR induction parameters by STAMP and TIF2. […] The fold-increase in each parameter was determined as follows: for EC50s, fold increase=[EC50]GR/[EC50]GR+factor; for partial agonist activity and fold Dex induction, fold increase=activityGR+factor/activityGR). The average fold increases were then plotted±S.E.M (n=4).
CV-1 cells were transiently transfected with GR (6 ng)±TIF2 (20 ng)±STAMP (160 ng) plasmids, GREtkLUC reporter, and Renilla control plasmid, and induced with ethanol± the indicated concentrations of Dex.
Tests were run to determine whether exogenous STAMP can modulate the EC50 of glucocorticoids and the partial agonist activity of antiglucocorticoids in the transient transfection assays where GR induced gene expression from a GREtkLUC reporter.

The next data set concerns the target T2, GR (Rattus norvegicus, UniProt P06536).
T2 construct: plus VP16 fused to the indicated full length receptors; expressed in transfected cells; host or cells: CV-1
T2 sequence (P06536 1-795): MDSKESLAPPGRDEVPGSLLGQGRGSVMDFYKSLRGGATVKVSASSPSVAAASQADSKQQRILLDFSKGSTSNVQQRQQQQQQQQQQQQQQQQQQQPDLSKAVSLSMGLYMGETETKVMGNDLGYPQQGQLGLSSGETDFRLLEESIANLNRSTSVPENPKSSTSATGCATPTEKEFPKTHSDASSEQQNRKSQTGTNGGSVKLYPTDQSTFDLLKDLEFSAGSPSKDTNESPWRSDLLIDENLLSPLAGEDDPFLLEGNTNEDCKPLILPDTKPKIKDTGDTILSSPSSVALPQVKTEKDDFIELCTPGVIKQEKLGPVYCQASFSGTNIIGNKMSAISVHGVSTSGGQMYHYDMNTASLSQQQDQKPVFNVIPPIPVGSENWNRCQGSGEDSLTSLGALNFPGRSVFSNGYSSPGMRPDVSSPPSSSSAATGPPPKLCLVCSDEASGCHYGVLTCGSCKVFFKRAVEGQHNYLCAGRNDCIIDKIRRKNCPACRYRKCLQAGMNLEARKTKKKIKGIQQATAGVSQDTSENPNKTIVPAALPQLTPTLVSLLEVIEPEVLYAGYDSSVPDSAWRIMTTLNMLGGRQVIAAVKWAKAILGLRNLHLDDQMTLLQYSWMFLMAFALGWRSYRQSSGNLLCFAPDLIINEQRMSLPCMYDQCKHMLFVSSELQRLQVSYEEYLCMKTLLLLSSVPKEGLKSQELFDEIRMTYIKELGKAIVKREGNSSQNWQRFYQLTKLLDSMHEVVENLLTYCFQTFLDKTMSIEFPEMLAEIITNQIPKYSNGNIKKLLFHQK
Kind of data set: Mammalian two-hybrid assay in CV-1 cells with VP16/GR. It counts as cell-based. The note with it: VP16/GR ± 1 μM Dex. The text has this: FIGS. 6A and 6B illustrate the domains of STAMP that interact with TIF2.4 (FIG. 6A) and GR (FIG. 6B) in the mammalian two-hybrid assay. […] These CV-1 cells were also transfected with GAL fused to the indicated segments of STAMP along with the FRLuc reporter and Renilla control plasmids. After determining the relative luciferase activities as described in FIG. 2B and 2C, the average values±S.E.M. from 2-5 experiments were plotted. The average fold increase for VP16/TIF2.4 with GAL/STAMP(623-834) in FIG. 6A was 11.0±3.0 (SEM, n=5) above the VP16 control. The values in parentheses above the data bars in FIG. 6B indicate the fold increased interaction ±1 μM Dex.
These assays were conducted as described (He et al., 2002). In particular, the recommended procedure for the Mammalian Matchmaker two-hybrid assay kit (Clontech) was modified slightly by changing from a chloramphenicol acetyltransferase reporter to a Luciferase Reporter pFRLuc (Stratagene), which is under the control of five repeats of the upstream activating sequence for the binding of GAL4.

The mark [3] stands for this setting: in the presence of transfected GR and TIF2.

For the molecule `C[C@@H]1C[C@H]2[C@@H]3CCC4=CC(=O)C=C[C@]4(C)[C@@]3(F)[C@@H](O)C[C@]2(C)[C@@]1(O)C(=O)CO` [dexamethasone], the “fold repression of PMA-induced AP-1 expression by Dex-bound GR” value in data set [1] is listed as “about 5 fold”.
For “TIF2: glucocorticoid receptor coactivator transcription intermediary factor-2”, in data set [1], the “fold repression of PMA-induced AP-1 expression by Dex-bound GR” value was “about 9 fold”. In addition, the “fold induction by PMA” value in data set [1] (25 μM PMA, no Dex) is recorded as “unchanged”. For the same molecule, in data set [2] (TIF2 alone (FIG. 4A1)), the “effect on GR dose-response curve and induction parameters” value is listed as “similar, small effect”.

B1: STAMP(834-956): STAMP fragment amino acids 834-956, N-terminal portion of the RID (protein)
chain: GDHPETIMEEVKIKPPKQQQTTEIHSDKLSRFTTSAEKEAKLVYSNSSSGPTATLQKIPNTHLSSVTTSDLSPGPCHHSSLSQIPSAIPSMPHQPTILLNTVSASASPCLHPGAQNIPSPTGL
modifications: GAL4 DBD fusion
notes: STAMP fragment amino acids 834-956, N-terminal portion of the RID
As for B1, the “interaction with GR” value with GR is given as “substantial ligand-independent association”.

B2: 956-1127: STAMP fragment amino acids 956 to 1127, portion of the RID region (protein)
chain: LPRCRSGSHTIGPFSSFQSAAHIYSQKLSRPSSAKAGSCYLNKHHSGIAKTQKEGEDASLYSKRYNQSMVTAELQRLAEKQAARQYSPSSHINLLTQQVTNLNLATGIINRSSASAPPTLRPIISPSGPTWSTQSDPQAPENHSSSPGSRSLQTGGFAWEGEVENNVYSQAT
modifications: GAL4 DBD fusion
notes: STAMP fragment amino acids 956 to 1127, portion of the RID region
In the case of B2, the “interaction with GR” value in the data set with GR was “largest agonist-induced changes”.

B3: GAL/N834: STAMP fragment amino acids 1-834, TTL domain and CID region (protein)
chain: MARDLEETASSSEDEEVISQEDHPCIMWTGGCRRIPVLVFHADAILTKDNNIRVIGERYHLSYKIVRTDSRLVRSILTAHGFHEVHPSSTDYNLMWTGSHLKPFLLRTLSEAQKVNHFPRSYELTRKDRLYKNIIRMQHTHGFKVFHILPQTFLLPAEYAEFCNSYSKDRGPWIVKPVASSRGRGVYLINNPNQISLEENILVSRYINNPLLIDDFKFDVRLYVLVTSYDPLVIYLYEEGLARFATVRYDQGAKNIRNQFMHLTNYSVNKKSGDYVSCDDPEVEDYGNKWSMSAMLRYLKQEGRDTTALMAHVEDLIIKTIISAELAIATACKTFVPHRSSCFELYGFDVLIDSTLKPWLLEVNLSPSLACDAPLDLKIKASMISDMFTVVGFVCQDPAQRASTRPIYPTFESSRRNPFQKPQRCRPLSASDAEMKNLVGSAREKGPGKLGGSVLGLSMEEIKVLRRVKEENDRRGGFIRIFPTSETWEIYGSYLEHKTSMNYMLATRLFQDRMTADGAPELKIESLNSKAKLHAALYERKLLSLEVRKRRRRSSRLRAMRPKYPVITQPAEMNVKTETESEEEEEVALDNEDEEQEASQEESAGFLRENQAKYTPSLTALVENTPKENSMKVREWNNKGGHCCKLETQELEPKFNLMQILQDNGNLSKMQARIAFSAYLQHVQIRLMKDSGGQTFSASWAAKEDEQMELVVRFLKRASNNLQHSLRMVLPSRRLALLERRRILAHQLGDFIIVYNKETEQMAEKKSKKKVEEEEEDGVNMENFQEFIRQASEAELEEVLTFYTQKNKSASVFLGTHSKISKNNNNYSDSGAKG
modifications: GAL4 DBD fusion
notes: STAMP fragment amino acids 1-834, TTL domain and CID region
With B3, in the data set with GR, the “interaction with GR” value is “relative inactivity”.

B4: STAMP623C: STAMP fragment amino acids 623 to 1277, CID and RID but no TTL domain (protein)
chain: ENTPKENSMKVREWNNKGGHCCKLETQELEPKFNLMQILQDNGNLSKMQARIAFSAYLQHVQIRLMKDSGGQTFSASWAAKEDEQMELVVRFLKRASNNLQHSLRMVLPSRRLALLERRRILAHQLGDFIIVYNKETEQMAEKKSKKKVEEEEEDGVNMENFQEFIRQASEAELEEVLTFYTQKNKSASVFLGTHSKISKNNNNYSDSGAKGDHPETIMEEVKIKPPKQQQTTEIHSDKLSRFTTSAEKEAKLVYSNSSSGPTATLQKIPNTHLSSVTTSDLSPGPCHHSSLSQIPSAIPSMPHQPTILLNTVSASASPCLHPGAQNIPSPTGLPRCRSGSHTIGPFSSFQSAAHIYSQKLSRPSSAKAGSCYLNKHHSGIAKTQKEGEDASLYSKRYNQSMVTAELQRLAEKQAARQYSPSSHINLLTQQVTNLNLATGIINRSSASAPPTLRPIISPSGPTWSTQSDPQAPENHSSSPGSRSLQTGGFAWEGEVENNVYSQATGVVPQHKYHPTAGSYQLQFALQQLEQQKLQSRQLLDQSRARHQAIFGSQTLPNSNLWTMNNGAGCRISSATASGQKPTTLPQKVVPPPSSCASLVPKPPPNHEQVLRRATSQKASKGSSAEGQLNGLQSSLNPAASVPITSSTDPAHTKI
With B4, in data set [2] (setting [3]), the “ability to increase the partial agonist activity of Dex-Mes, retained” value is recorded as 40% and the “capacity of full length STAMP to increase the fold induction with Dex, retained” value is recorded as 85%.

B5: 1127C: STAMP fragment amino acids 1127 to 1277, C-terminal part of the RID (protein)
chain: TGVVPQHKYHPTAGSYQLQFALQQLEQQKLQSRQLLDQSRARHQAIFGSQTLPNSNLWTMNNGAGCRISSATASGQKPTTLPQKVVPPPSSCASLVPKPPPNHEQVLRRATSQKASKGSSAEGQLNGLQSSLNPAASVPITSSTDPAHTKI
modifications: GAL4 DBD fusion
notes: STAMP fragment amino acids 1127 to 1277, C-terminal part of the RID
For B5, the “interaction with GR” value in the data set with GR is “largest agonist-induced changes”.
